The text below walks through data of article PMC12948210 (2025).

Experiment in all cases: GST pull-down; 500 mM NaCl; denaturing pull-down (His-DDX21 purified in urea or guanidine)
In test [1] the target is T1, GST-tagged EIF1AX IDR2 fragment (Homo sapiens (Human), UniProt P47813).
T1 chain: DIGDDDEDIDDI

Test [2] addresses T2, GST-tagged EIF1AX IDR1 fragment (Homo sapiens (Human), UniProt P47813).
T2 chain: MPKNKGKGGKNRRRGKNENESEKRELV

In test [3] the target is T3, GST-tagged EIF1AX RBP fragment (Homo sapiens (Human), UniProt P47813).
T3 chain: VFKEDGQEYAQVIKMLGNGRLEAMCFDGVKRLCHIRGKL

B1: His-DDX21 (protein)
chain: MPGKLRSDAGLESDTAMKKGETLRKQTEEKEKKEKPKSDKTEEIAEEEETVFPKAKQVKKKAEPSEVDMNSPKSKKAKKKEEPSQNDISPKTKSLRKKKEPIEKKVVSSKTKKVTKNEEPSEEEIDAPKPKKMKKEKEMNGETREKSPKLKNGFPHPEPDCNPSEAASEESNSEIEQEIPVEQKEGAFSNFPISEETIKLLKGRGVTFLFPIQAKTFHHVYSGKDLIAQARTGTGKTFSFAIPLIEKLHGELQDRKRGRAPQVLVLAPTRELANQVSKDFSDITKKLSVACFYGGTPYGGQFERMRNGIDILVGTPGRIKDHIQNGKLDLTKLKHVVLDEVDQMLDMGFADQVEEILSVAYKKDSEDNPQTLLFSATCPHWVFNVAKKYMKSTYEQVDLIGKKTQKTAITVEHLAIKCHWTQRAAVIGDVIRVYSGHQGRTIIFCETKKEAQELSQNSAIKQDAQSLHGDIPQKQREITLKGFRNGSFGVLVATNVAARGLDIPEVDLVIQSSPPKDVESYIHRSGRTGRAGRTGVCICFYQHKEEYQLVQVEQKAGIKFKRIGVPSATEIIKASSKDAIRLLDSVPPTAISHFKQSAEKLIEEKGAVEALAAALAHISGATSVDQRSLINSNVGFVTMILQCSIEMPNISYAWKELKEQLGEEIDSKVKGMVFLKGKLGVCFDVPTASVTEIQEKWHDSRRWQLSVATEQPELEGPREGYGGFRGQREGSRGFRGQRDGNRRFRGQREGSRGPRGQRSGGGNKSNRSQNKGQKRSFSKAFGQ
With B1, the binding result in test [1] was “no binding”; in test [2], “no binding”; in test [3], “binds”.
